Substitutions are numbered along the chain they refer to.
Legend:
[1] = target: T1, mesothelin (MSLN), full length (UniProt Q13421 296-598, limits assumed); assay: ELISA, supernatant
T1 construct: coating antigen of the ELISA; construct not described

[2] = target: T2, EGFR on 293T-EGFR cells (293T cells negative for BCMA expression) (UniProt P00533 25-1210, limits assumed); assay: flow cytometry
T2 construct: whole, on cells; negative control cells; that they carry EGFR is read from the label only

BCMA on RPMI8226 cells = target: T3, BCMA on RPMI8226 cells (UniProt Q02223 1-184, limits assumed); assay: FACS on RPMI8226 cells
T3 construct: whole, on cells
T3 sequence (looked up): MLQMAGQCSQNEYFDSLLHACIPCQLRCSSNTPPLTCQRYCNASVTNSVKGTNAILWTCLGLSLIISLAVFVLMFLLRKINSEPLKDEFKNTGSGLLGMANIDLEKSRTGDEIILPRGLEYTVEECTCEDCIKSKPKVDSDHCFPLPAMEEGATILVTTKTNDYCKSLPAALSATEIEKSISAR

[3] = target: T2, EGFR on 293T-EGFR cells (293T cells …); assay: FACS on 293T-EGFR cells (BCMA negative)
BCMA-His = target: T4, BCMA-His (human, UniProt Q02223 1-54); assay: ELISA, BCMA-His coated 1 ug/mL
T4 construct: coating antigen, 1 ug/mL; also called His-conjugated human BCMA; not shown: His tag
T4 sequence (looked up): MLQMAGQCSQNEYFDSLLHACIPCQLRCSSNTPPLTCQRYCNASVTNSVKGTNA

Anti-His = target: T5, Anti-His; assay: ELISA, Anti-His coated 1 ug/mL
T5 construct: ELISA coating control

human IgG = target: T6, human IgG; assay: ELISA, human IgG coated 1 ug/mL
T6 construct: ELISA coating control

BCMA-Fc = target: T7, BCMA-Fc (human, UniProt Q02223 1-54); assay: ELISA, BCMA-Fc coated 1 ug/mL
T7 construct: coating antigen, 1 ug/mL; also called Fc-conjugated human BCMA; not shown: Fc
T7 sequence (looked up): T4 sequence (looked up)

MSLN epitope domain 2 = target: T8, MSLN epitope domain 2 (UniProt Q13421 391-486, limits assumed); assay: ELISA, supernatant
T8 construct: domain: domain 2; also called domain 2 of MSLN

MSLN epitope domain 3 = target: T9, MSLN epitope domain 3 (UniProt Q13421 487-598, limits assumed); assay: ELISA, supernatant
T9 construct: domain: domain 3; also called domain 3 of MSLN

PD-1 protein [4] = target: T10, PD-1 protein (human, UniProt Q15116 25-167, limits assumed); assay: blocking ELISA, PD-1 coated, competitor biotin PD-L1
T10 construct: also called human PD-1
Procedure: Each well of 96-well microtiter plates is coated with 2 μg/ml of PD-1 protein in PBS and blocked with 1% BSA. […]
The intensity of the developed color is measured at 450 nm. Wells with no added PD-1 and no added VHH-FC are negative and positive controls, respectively.

PD-1 protein [5] = target: T10, PD-1 protein; assay: ELISA, PD-1 coated
Procedure: 2 μg/ml of PD-1 protein is coated on 96-well plates overnight for ELISA binding assay. Recombinant VHH-FC proteins are added to the wells and allowed to stand for a period of time, then 1 μg/ml of HRP-conjugated anti-FC antibody is added as detection antibody and the assay reagents are added. The absorbance is read at 450 nm. Binding of nivolumab serves as a positive control and plates coated with BSA are used as the negative control group.

MSLN epitope domain 1 = target: T11, MSLN epitope domain 1 (UniProt Q13421 296-390, limits assumed); assay: ELISA, supernatant
T11 construct: domain: domain 1; also called domain 1 of MSLN
T11 sequence (Q13421 296-390 limits assumed): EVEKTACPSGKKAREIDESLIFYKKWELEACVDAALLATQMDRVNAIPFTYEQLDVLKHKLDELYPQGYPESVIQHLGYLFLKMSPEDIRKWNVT

T10 sequence (Q15116 25-167 limits assumed): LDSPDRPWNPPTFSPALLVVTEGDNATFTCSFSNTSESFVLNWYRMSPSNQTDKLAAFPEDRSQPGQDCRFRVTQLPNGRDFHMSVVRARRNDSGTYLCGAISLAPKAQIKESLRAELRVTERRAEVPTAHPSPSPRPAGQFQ
T1 sequence (Q13421 other isoform, or with tags, fused parts or gaps limits assumed): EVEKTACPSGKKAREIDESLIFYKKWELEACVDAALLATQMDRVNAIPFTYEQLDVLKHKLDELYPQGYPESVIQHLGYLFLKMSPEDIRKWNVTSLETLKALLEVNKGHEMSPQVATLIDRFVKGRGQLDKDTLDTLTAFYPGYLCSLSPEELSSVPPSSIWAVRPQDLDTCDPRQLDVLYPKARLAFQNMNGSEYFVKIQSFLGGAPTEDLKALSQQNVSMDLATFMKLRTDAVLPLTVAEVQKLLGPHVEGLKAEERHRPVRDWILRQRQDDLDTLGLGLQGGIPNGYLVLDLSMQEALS
T8 sequence (Q13421 other isoform, or with tags, fused parts or gaps limits assumed): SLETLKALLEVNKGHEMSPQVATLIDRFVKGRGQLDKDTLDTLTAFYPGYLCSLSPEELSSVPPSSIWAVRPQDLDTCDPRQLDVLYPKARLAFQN
T9 sequence (Q13421 495-606 limits assumed): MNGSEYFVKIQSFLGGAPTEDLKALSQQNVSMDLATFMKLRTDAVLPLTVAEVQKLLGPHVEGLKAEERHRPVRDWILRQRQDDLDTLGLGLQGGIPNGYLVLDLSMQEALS

B1: NBL501#010 (VHH)
VHH: QVKLEESGGGLVQAGGSLRLSCVASGSIFSINAMGWYRRAPGKERELVASISSDGSIYYADSVKGRFTISRDNAKNTLYLQMNSLKPEDTAMYDCAALGVVNVGVRPTLEYIYWGQGTQVTVSS
notes: tested as supernatant in ELISA
- binding result [1]: no binding

B2: NBL507-A1L1-P1R2-1A1-(1)-PME207-SEQF_A01 (VHH)
VHH: EVQLVESGGGLVQPGGSLRLSCAASGFTFRSSAMSWARQAPGKGLEWVSDIYPDGRTDYADSIKGRFTMSRDNAKNTVYLLMDSLKPEDTAVYHCQVGRYVSGVYYQPRGQGTQVTVSS
notes: purified VHH; also called lAl
- binding result [2]: no binding
- MFI (BCMA on RPMI8226 cells): 2420 MFI
- MFI [3]: 230 MFI
- OD450 (BCMA-His): 2.37 OD450
- OD450 (Anti-His): 2.1 OD450
- OD450 (human IgG): 0.03 OD450
- OD450 (BCMA-Fc): 2.47 OD450

B3: NBL501#002 (VHH)
VHH: QVQLVESGGGLVQAGGSLRLSCAASISIRRINAMGWYRQAPGKERELVAVISSPNKTLYADSVKGRFTISKDNYTNTLYLQMNSLKPEDTAMYYCSAWRIGVDTTDYYGQGTQVTVSS
notes: as for B1
- binding result (MSLN epitope domain 2): no binding
- binding result (MSLN epitope domain 3): no binding

B4: NBL507-A1L1-P1R2-1B8-(44)-PME207-SEQF_D06 (VHH)
VHH: QVQLVESGGGLVQPEGSLRLSCAASGSIFSIYAMGWYRQAPGKQRGLVAAITSGGDTFYADSVKGRFTISRDNARNTVYLQMNNLKSEDTAVYDCNGAPWGDHAPLVASWGQGTQVTVSS
notes: purified VHH
- binding result [2]: no binding
- MFI (BCMA on RPMI8226 cells): 1810 MFI
- MFI [3]: 219 MFI
- OD450 (BCMA-His): 2.27 OD450
- OD450 (Anti-His): 1.79 OD450
- OD450 (human IgG): 0.01 OD450
- OD450 (BCMA-Fc): 2.47 OD450

B5: NBL507-A1L1-P1R2-1D2-(9)-PME207-SEQF_A02 (VHH)
VHH: QVQLVESGGGLVQPGGSLRLSCAASGFTFSSSAMSWARQAPGKGLECVSDIYPDGTSSYADSMKGRFTISRDNTRNTMYLQMNVLKPEDTATYYCVIGRGGYAMGDRRLRGQGTQVTVSS
notes: purified VHH
- binding result [2]: no binding
- MFI (BCMA on RPMI8226 cells): 1260 MFI
- MFI [3]: 222 MFI
- OD450 (BCMA-His): 2.32 OD450
- OD450 (Anti-His): 0.57 OD450
- OD450 (human IgG): 0.02 OD450
- OD450 (BCMA-Fc): 2.35 OD450

B6: NBL501#011 (VHH)
VHH: QVQLVESGGGLVQAGGSLRLSCAVFGNTGAIHAMAWYRQAPGKQREEVARISFGDGRTVYGDSVKGRFTISGDDAKNTMYLQMNILKAEDTAEYYCNAVFLGIGPTGRFEYEYWGQGTQVTVSS
notes: as for B1
- binding result [1]: no binding

B7: NBL501#006 (VHH)
VHH: QVQLVESGGGLVQAGGSLRLSCAASGSADSIPAMGWYRQAPGKEREYLAAISSGTNTYYASSAKGRFAISRNNANNTLYLQMNSLKPEDTAMYYCATCSSYYYCSGPYVRSWGQGTQVTVSS
notes: as for B1
- binding result [1]: no binding

B8: NBL501#004 (VHH)
VHH: EVQVVESGGGLVQAGGSLRLSCVPSGSISSIYAMGWYRQALGPERELVAAQTLGGGTYYANPVKGRFTIYRDNDKNTLYLQMNNLKPEDTAMYYCATPGEHWGSSDVTNWGQGTQVTVSS
notes: as for B1
- binding result (MSLN epitope domain 2): no binding
- binding result (MSLN epitope domain 3): no binding

B9: NBL507-A1L1-P1R2-1B6-(31)-PME207-SEQF_G04 (VHH)
VHH: QVQLVESGGGLVQPGGSLRLSCAASGFTFSPSAMSWARQAPGKGLEWVSGIYSDGSTYYRDSVKGRFTISRDNARNMVYLQMNSLKPEDTAVYYCALGAMREGVYSDLLGQGTQVTVSS
notes: purified VHH
- binding result [2]: no binding
- MFI (BCMA on RPMI8226 cells): 864 MFI
- MFI [3]: 216 MFI
- OD450 (BCMA-His): 2.25 OD450
- OD450 (Anti-His): 1.96 OD450
- OD450 (human IgG): 0.03 OD450
- OD450 (BCMA-Fc): 2.52 OD450

B10: 504#SS13 (Fc fusion, not shown: a dimerising Fc or GST; small tags and cut ends)
VHH: EVQVVESGGGSVQPGGSLRLSCAASGRGFTEHAMGWYRQSPGKEREFVAGISSGGSTYYADSVKGRFTVSRDSAGNTVALQMDSLKPEDTAVYYCSYKRGRYPDGVSTLEYWGQGTQVTVSS
notes: VHH-FC construct from HEK293 cells
- OD450 of PD-L1 bound, antibody at 0.15 µg/mL (PD-1 protein [4]): 3.34 OD450
- OD450 of PD-L1 bound, antibody at 0.61 µg/mL (PD-1 protein [4]): 3.33 OD450
- OD450 of PD-L1 bound, antibody at 2.42 µg/mL (PD-1 protein [4]): 3.29 OD450
- OD450 of PD-L1 bound, antibody at 9.75 µg/mL (PD-1 protein [4]): 3.33 OD450
- OD450 at 0.002 µg/mL (PD-1 protein [5]): 0.03 OD450
- OD450 at 0.02 µg/mL (PD-1 protein [5]): 0.03 OD450
- OD450 at 0.2 µg/mL (PD-1 protein [5]): 0.03 OD450
- OD450 at 2 µg/mL (PD-1 protein [5]): 0.03 OD450

B11: NBL507-A1L1-P1R2-1E2-(10)-PME207-SEQF_B02 (VHH)
VHH: EVQLVESGGGLVQPGGSLRLSCAASGSISSIYAMGWYRQAPGKLRELVAAITTGGSTFYRDSVKGRFTISRDNVANTVYLQMNSLKPEDTAVYHCNGAPWGDIAPVAVSWGQGTQVTVSS
notes: purified VHH
- binding result [2]: no binding
- MFI (BCMA on RPMI8226 cells): 2550 MFI
- MFI [3]: 227 MFI
- OD450 (BCMA-His): 2.37 OD450
- OD450 (Anti-His): 2.44 OD450
- OD450 (human IgG): 0.03 OD450
- OD450 (BCMA-Fc): 2.53 OD450

B12: NBL501#007 (VHH)
VHH: QVQLVESGGGLVQPGGSLTLSCAASGFTFSSYYMSWVRQAPGKGPEWVSIISTGGASTVYTDSVKGRFTASRDNAKNTLYLQMNSLKPEDTALYYCVRGNSRSGLIPRAYWGQGTQVTVSS
notes: as for B1
- binding result [1]: no binding

B13: NBL501#003 (VHH)
VHH: QVQLVESGGGLVQPGGSLRLSCAASGITLDYYAIGWFRQAPGKEREGVSCISSSGGSTNYADSVKGRFTMSRDNAKNTVYLQMNSLKPEDTAVYYCAADIHCSGYVLFSPSDFGNWGQGTQVTVSS
notes: as for B1
- binding result [1]: no binding

B14: NBL507-A2L1-P1R2-1C1-(273)-PME207-SEQF_E11 (VHH)
VHH: QVQLVESGGGLVHPGGSLRLDCAVSERIASFNVMGWYRQAPGQQREVVATITSVGRTYYADSVKGRFTIAKDNDKNTYLQMNSLKPEDTAVYYCKAVIVGTYDTEYWGQGTLVTVSS
notes: purified VHH
- binding result [2]: no binding
- MFI (BCMA on RPMI8226 cells): 764 MFI
- MFI [3]: 222 MFI
- OD450 (BCMA-His): 2.28 OD450
- OD450 (Anti-His): 0.71 OD450
- OD450 (human IgG): 0.03 OD450
- OD450 (BCMA-Fc): 3.12 OD450

B15: NBL507-A2L1-P1R2-1H1-(275)-PME207-SEQF_G11 (VHH)
VHH: B14 VHH with D21A, V24A, A29L, A70F, D74G, N82S, I98T, T101D, Y102V, L112Q
notes: purified VHH
- binding result [2]: no binding
- MFI (BCMA on RPMI8226 cells): 532 MFI
- MFI [3]: 222 MFI
- OD450 (BCMA-His): 2.11 OD450
- OD450 (Anti-His): 0.98 OD450
- OD450 (human IgG): 0.04 OD450
- OD450 (BCMA-Fc): 3.3 OD450

B16: NBL501#009 (VHH)
VHH: EVQVVESGGGLVQAGGSLRLSCVASGFTFSVAAMRWYRQAPGKQREWVASAFSDGNLHYEDFVKGRFTISRDDAKNTLYLQMDSLKPEDTAVYYCNAGTPSRAYWGQGTQVTVSS
notes: as for B1
- binding result (MSLN epitope domain 1): no binding
- binding result (MSLN epitope domain 3): no binding

B17: NBL501#008 (VHH)
VHH: QVQLVESGGGLVQAGGSLRLSCVASGIVFRLNAMGWFRQAPGRERELVATIASGGWAYYGDTMSGRVTISRDNDKNTLYLEMNSLKPEDSAMYYCSAGGARPHSWGQGTQVTVSS
notes: as for B1
- binding result (MSLN epitope domain 2): no binding
- binding result (MSLN epitope domain 3): no binding

Source: patent US20230002757A1 (ZHEJIANG NANOMAB TECHNOLOGY CENTER, published 2023)
